Measurements taken from publication PMC4673130.

Target: T1, HA-tetherin (wild type), Q10589
T1 chain: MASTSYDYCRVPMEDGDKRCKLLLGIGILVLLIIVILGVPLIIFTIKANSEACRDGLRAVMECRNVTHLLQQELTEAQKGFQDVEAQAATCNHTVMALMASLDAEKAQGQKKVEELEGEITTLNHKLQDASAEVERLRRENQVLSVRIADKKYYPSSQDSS
Experiment: non-reducing SDS-PAGE and immunoblot; lysates of HEK293 cells transfected with HA-tetherin with or without SHBs plasmids; SDS-PAGE in the absence or presence of 2-mercaptoethanol, blot with anti-HA; dimer and monomer bands
Conditions: remark: other sources report otherwise

B1: HA-tetherin (wild type), Q10589 1-161 (natural protein)
chain: MASTSYDYCRVPMEDGDKRCKLLLGIGILVLLIIVILGVPLIIFTIKANSEACRDGLRAVMECRNVTHLLQQELTEAQKGFQDVEAQAATCNHTVMALMASLDAEKAQGQKKVEELEGEITTLNHKLQDASAEVERLRRENQVLSVRIADKKYYPSSQDSS
Work on B1 yielded a stoichiometry N of 2.
